# Measured values published in patent publication US20240101695A1 (University of California, published 2024).
# Key:
# human FcεRI = target: T1, human FcεRI (human, UniProt P12319 26-257); experiment: flow cytometry on RBL SX-38 cells expressing human FcεRI
# T1 construct: whole, on cells; Multi-subunit receptor; In the PCA assay it is the humanized FcεRI of transgenic huFcεRI mice; also called huFcεRI
# T1 sequence (looked up): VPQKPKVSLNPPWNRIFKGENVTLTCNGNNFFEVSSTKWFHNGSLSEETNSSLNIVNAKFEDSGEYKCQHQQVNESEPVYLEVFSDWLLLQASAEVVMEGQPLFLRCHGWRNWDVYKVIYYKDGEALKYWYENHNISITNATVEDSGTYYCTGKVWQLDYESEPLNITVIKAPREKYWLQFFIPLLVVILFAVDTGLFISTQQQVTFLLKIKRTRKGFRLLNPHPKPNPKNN
# Method: Human MM cells (MM.1S) expressing CD138 were incubated with either IgE isotype control (non-targeting control), anti-CD138 IgG1, or anti-CD138 IgE. The rat basophilic leukemia cells RBL SX-38 expressing human FcεRI were incubated with either IgE isotype control, anti-CD138 IgG1, or anti-CD138 IgE. Antibody binding was detected using a PE-conjugated goat F(ab′)₂ anti-human κ antibody. Grey line histograms represent cells incubated with secondary antibody only (“no antibody”). Black line histograms represent cells incubated with primary antibodies (IgE isotype control, anti-CD138 IgG1, or anti-CD138 IgE).
# Human MM cells (MM.1S) expressing TfR1 were incubated with either IgE isotype control (non-targeting control) or anti-TfR1 IgE. […] Antibody binding was detected using a PE-conjugated mouse IgG1 anti-human IgE antibody. […]
# Antigen binding of the anti-CD38 IgE, anti-CD138 IgE, and anti-TfR1 IgE antibodies was studied by flow cytometry using the human multiple myeloma (MM) cell line MM.1S purchased from the American Type Culture Collection (ATCC, Manassas, VA, USA; ATCC® CRL-2974™). […] Binding to FcεRI was also assessed by flow cytometry using the rat basophilic leukemia cell line RBL SX-38 expressing human FcεRI¹¹³ kindly provided by Dr. Jean-Pierre Kinet (Beth Israel Deaconess Medical Center, Boston, MA, USA). […]
# [1] = target: T2, human transferrin receptor 1 (TfR1) (human, UniProt P02786 1-760); experiment: flow cytometry on MM.1S cells expressing TfR1
# T2 construct: whole, on cells; Endogenous antigen on MM.1S cells; also called transferrin receptor protein 1; CD71
# Method: Human MM cells (MM.1S) expressing TfR1 were incubated with either IgE isotype control (non-targeting control) or anti-TfR1 IgE. The rat basophilic leukemia cells RBL SX-38 expressing human FcεRI were incubated with either IgE isotype control or anti-TfR1 IgE. Antibody binding was detected using a PE-conjugated mouse IgG1 anti-human IgE antibody. Grey filled histograms represent cells incubated with secondary antibody only (“no antibody”). Empty black line histograms represent cells incubated with primary antibodies (IgE isotype control or anti-TfR1 IgE).
# (§1) Antigen binding of the anti-CD38 IgE, anti-CD138 IgE, and anti-TfR1 IgE antibodies was studied by flow cytometry using the human multiple myeloma (MM) cell line MM.1S purchased from the American Type Culture Collection (ATCC, Manassas, VA, USA; ATCC® CRL-2974™). […] Binding to FcεRI was also assessed by flow cytometry using the rat basophilic leukemia cell line RBL SX-38 expressing human FcεRI¹¹³ kindly provided by Dr. Jean-Pierre Kinet (Beth Israel Deaconess Medical Center, Boston, MA, USA). […] Samples were analyzed on a BD LSRII analytical flow cytometer (BD Biosciences, San Jose, CA, USA) and 10,000 events were collected. […]
# human CD138 = target: T3, human CD138 (human, UniProt P18827 23-310); experiment: flow cytometry on MDA-MB-468 and SK-BR-3 cells expressing CD138
# T3 construct: whole, on cells; Endogenous antigen on MM.1S, MDA-MB-468 and SK-BR-3 cells; also called syndecan-1
# T3 sequence (looked up): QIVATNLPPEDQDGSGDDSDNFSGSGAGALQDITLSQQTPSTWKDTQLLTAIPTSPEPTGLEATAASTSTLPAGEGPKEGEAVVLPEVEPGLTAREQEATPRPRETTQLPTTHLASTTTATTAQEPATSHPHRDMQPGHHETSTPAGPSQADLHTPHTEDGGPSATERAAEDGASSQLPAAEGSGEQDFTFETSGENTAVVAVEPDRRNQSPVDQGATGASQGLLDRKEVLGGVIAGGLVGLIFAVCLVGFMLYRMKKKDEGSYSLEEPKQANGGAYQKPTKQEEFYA
# Method: Human triple negative breast cancer (TNBC) cells (MDA-MB-468) and human HER2/neu positive breast cancer cells (SK-BR-3) expressing CD138 were incubated with either IgE isotype control (non-targeting control) or anti-CD138 IgE. Antibody binding was detected using a PE-conjugated goat F(ab′)₂ anti-human κ antibody. Grey filled histograms represent cells incubated with secondary antibody only (“no antibody”). Empty black line histograms represent cells incubated with primary antibodies (IgE isotype control or anti-CD138 IgE).
# as §1
# T2 sequence (P02786 whole entry): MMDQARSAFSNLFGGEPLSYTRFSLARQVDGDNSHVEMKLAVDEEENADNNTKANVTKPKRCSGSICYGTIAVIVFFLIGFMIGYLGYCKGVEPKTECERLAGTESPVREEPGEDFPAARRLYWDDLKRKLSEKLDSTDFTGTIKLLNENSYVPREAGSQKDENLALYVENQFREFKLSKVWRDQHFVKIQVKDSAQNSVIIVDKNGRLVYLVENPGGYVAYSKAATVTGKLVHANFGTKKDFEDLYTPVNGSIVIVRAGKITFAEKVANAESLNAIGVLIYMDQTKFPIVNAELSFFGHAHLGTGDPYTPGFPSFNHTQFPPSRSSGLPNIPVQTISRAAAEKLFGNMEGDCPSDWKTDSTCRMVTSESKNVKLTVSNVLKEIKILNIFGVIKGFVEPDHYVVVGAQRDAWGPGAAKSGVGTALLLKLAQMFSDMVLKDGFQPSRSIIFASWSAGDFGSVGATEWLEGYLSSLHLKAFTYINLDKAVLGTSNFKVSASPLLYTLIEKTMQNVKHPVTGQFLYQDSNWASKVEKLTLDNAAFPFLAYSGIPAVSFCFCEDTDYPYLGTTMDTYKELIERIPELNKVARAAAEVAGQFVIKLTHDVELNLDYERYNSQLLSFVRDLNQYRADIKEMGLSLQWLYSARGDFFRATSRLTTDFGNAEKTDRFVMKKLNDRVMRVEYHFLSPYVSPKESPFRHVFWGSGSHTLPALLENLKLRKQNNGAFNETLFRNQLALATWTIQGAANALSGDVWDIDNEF
Binder,binding result (human FcεRI),binding result [1],binding result (human CD138)
"anti-TfR1 IgE (antibody, Mouse/human chimeric IgE; also called TfR1-Targeted Antibody; anti-TfR1 IgE antibody) heavy: EVQLQQSGPELVKPGASMKISCKASGYSFTGYTMNWVKQSHGENLEWIGRINPHNGGTDYNQKFKDKAPLTVDKSSNTAYMELLSLTSGDSAVYYCARGYYYYSLDYWGQGTSVTVSSASTQSPSVFPLTRCCKNIPSNATSVTLGCLATGYFPEPVMVTWDTGSLNGTTMTLPATTLTLSGHYATISLLTVSGAWAKQMFTCRVAHTPSSTDWVDNKTFSVCSRDFTPPTVKILQSSCDGGGHFPPTIQLLCLVSGYTPGTINITWLEDGQVMDVDLSTASTTQEGELASTQSELTLSQKHWLSDRTYTCQVTYQGHTFEDSTKKCADSNPRGVSAYLSRPSPFDLFIRKSPTITCLVVDLAPSKGTVNLTWSRASGKPVNHSTRKEEKQRNGTLTVTSTLPVGTRDWIEGETYQCRVTHPHLPRALMRSTTKTSGPRAAPEVYAFATPEWPGSRDKRTLACLIQNFMPEDISVQWLHNEVQLPDARHSTTQPRKTKGSGFFVFSRLEVTRAEWEQKDEFICRAVHEAASPSQTVQRAVSVNPGK light: QIVLTQSPAIMSVSPGEKVTMTCSASSSIRYIHWYQQRPGTSPKRWIYDTSNLASGVPARFSGSGSGTSYSLTISSMEAEDAATYYCHQRNSYPWTFGGGTRLEIRRTVAAPSVFIFPPSDEQLKSGTASVVCLLNNFYPREAKVQWKVDNALQSGNSQESVTEQDSKDSTYSLSSTLTLSKADYEKHKVYACEVTHQGLSSPVTKSFNRGEC",binds,binds,
"anti-CD138 IgE (antibody, Mouse/human chimeric IgE; also called CD138-Targeted Antibody; anti-CD138 IgE antibody) heavy: QVQLQQSGSELMMPGASVKISCKATGYTFSNYWIEWVKQRPGHGLEWIGEILPGTGRTIYNEKFKGKATFTADISSNTVQMQLSSLTSEDSAVYYCARRDYYGNFYYAMDYWGQGTSVTVSSASTQSPSVFPLTRCCKNIPSNATSVTLGCLATGYFPEPVMVTWDTGSLNGTTMTLPATTLTLSGHYATISLLTVSGAWAKQMFTCRVAHTPSSTDWVDNKTFSVCSRDFTPPTVKILQSSCDGGGHFPPTIQLLCLVSGYTPGTINITWLEDGQVMDVDLSTASTTQEGELASTQSELTLSQKHWLSDRTYTCQVTYQGHTFEDSTKKCADSNPRGVSAYLSRPSPFDLFIRKSPTITCLVVDLAPSKGTVNLTWSRASGKPVNHSTRKEEKQRNGTLTVTSTLPVGTRDWIEGETYQCRVTHPHLPRALMRSTTKTSGPRAAPEVYAFATPEWPGSRDKRTLACLIQNFMPEDISVQWLHNEVQLPDARHSTTQPRKTKGSGFFVFSRLEVTRAEWEQKDEFICRAVHEAASPSQTVQRAVSVNPGK light: DIQMTQSTSSLSASLGDRVTISCSASQGINNYLNWYQQKPDGTVELLIYYTSTLQSGVPSRFSGSGSGTDYSLTISNLEPEDIGTYYCQQYSKLPRTFGGGTKLEIKRTVAAPSVFIFPPSDEQLKSGTASVVCLLNNFYPREAKVQWKVDNALQSGNSQESVTEQDSKDSTYSLSSTLTLSKADYEKHKVYACEVTHQGLSSPVTKSFNRGEC",binds,,binds
